Assay results as given in patent US10155811B2, “APLNR modulators and uses thereof” (Regeneron Pharmaceuticals, Inc., priority 2013, dated 2018).
Substitutions are numbered along the chain they refer to.

T1: hAPLNR (Homo sapiens, UniProt P35414)
T1 sequence (P35414 1-380): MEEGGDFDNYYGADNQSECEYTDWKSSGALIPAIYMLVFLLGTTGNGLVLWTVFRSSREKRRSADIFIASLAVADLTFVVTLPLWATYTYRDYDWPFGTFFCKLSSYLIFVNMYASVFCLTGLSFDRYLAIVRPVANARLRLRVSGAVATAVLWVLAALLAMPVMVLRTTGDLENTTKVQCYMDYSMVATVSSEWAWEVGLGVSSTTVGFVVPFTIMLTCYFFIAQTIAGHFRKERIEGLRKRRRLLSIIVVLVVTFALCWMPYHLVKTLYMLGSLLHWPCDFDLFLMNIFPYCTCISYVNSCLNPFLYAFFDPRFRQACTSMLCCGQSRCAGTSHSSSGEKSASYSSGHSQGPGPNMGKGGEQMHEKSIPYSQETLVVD

B1: H4H9103P: anti-APLNR antibody, HCVR/LCVR SEQ ID NO: 162/170, human IgG4 Fc (antibody, V domains shown)
VH: EVQLVESGGGLVQPGRSLRLSCAASGFTFDDYAMHWVRQVPGKGLEWVSGITWNSGDIGYADSVKGRFTISRDNAKNSLYLQMNSLRAEDTALYYCTKDKDSSGYYGIDVWGQGTTVTVSS
VL: DIQMTQSPSSVSASVGDRVTITCRASQGIRTWLAWYQQKPGKAPKLLIYAASSLQSGVPSRFSGSESGTDFTLTISSLQPEDFATYYCQQANSFPFTFGPGTKVDIK
modifications: human IgG4 Fc
B2: H2aM9227N: anti-APLNR antibody, HCVR/LCVR SEQ ID NO: 50/58, mouse IgG2a Fc (antibody, V domains shown)
VH: EVQLVESGGGLVQPGGSLRLSCAASGFTFSSFWMSWVRQVPGKGLEWVANIKQDGSEKYYVDSVKGRFTISRDNAKNSLYLQMNSLRAEDTAVYYCARDRFGYSFYDKGVRYYYGMDVWGQGTTVTVSS
VL: DIQMTQSPSSLSVSVGDRVTITCRASQGIRNDLGWYQQKPGKAPKRLIYATSSLQSGVPSRFSGSGSGTEFTLTISGLQPEDFATYYCLQHNSYPRTFGQGTKVEIK
modifications: mouse IgG2a Fc
B3: H4H9113P: anti-APLNR antibody, HCVR/LCVR SEQ ID NO: 210/218, human IgG4 Fc (antibody, V domains shown)
VH: QVQLVQSGAEVKKPGASVEVSCKASGYTFTDYYIHWIRQAPGQGLEWMGWINPDSGRTNYAQKFQVRVTMTRDTSITTAYMELNRLKSDDTAVYYCARGPLRGYSGYDFFDYWGQGTLVTVSS
VL: B2 VL with V13A, K45N, T51A, G77S, Q79H, Y87S, Y94F, R96L, Q100G
modifications: human IgG4 Fc
B4: H2aM9228N: anti-APLNR antibody, HCVR/LCVR SEQ ID NO: 66/74, mouse IgG2a Fc (antibody, V domains shown)
VH: B2 VH with S31N, F32Y, Q39L, V40A, K58R, D62G, D73G, N74D, F105A, Y106F
VL: B2 VL with V13A, T51A, G77S
modifications: mouse IgG2a Fc
B5: H2aM9222N: anti-APLNR antibody, HCVR/LCVR SEQ ID NO: 34/42, mouse IgG2a Fc (antibody, V domains shown)
VH: B2 VH with S31N, F32Y, V40A, K58R, D62G, D73G, N74D, K76E, F105A
VL: B2 VL with V13A, T51A, G77S
modifications: mouse IgG2a Fc
B6: H2aM9230N: anti-APLNR antibody, HCVR/LCVR SEQ ID NO: 82/90, mouse IgG2a Fc (antibody, V domains shown)
VH: B2 VH with E46Q, F105V
VL: B2 VL with T51A, P80S, N92K
modifications: mouse IgG2a Fc
B7: H4H9101P: anti-APLNR antibody, HCVR/LCVR SEQ ID NO: 146/154, human IgG4 Fc (antibody, V domains shown)
VH: B3 VH
VL: DIQLTQSPSFLSASVGDRVTITCWASQGISSYLAWYQQKPGKAPKLLIYAASTLQSGVPSRFSGSGSGTEFTLTISSLQPEDFASYFCQQLNSNPRTFGQGTKVEIK
modifications: human IgG4 Fc
B8: H1M9207N: anti-APLNR antibody, HCVR/LCVR SEQ ID NO: 2/10, mouse IgG1 Fc (antibody, V domains shown)
VH: EVQLVESGGGLAQPGGSLRLSCAASGFTFSNYWMSWVRQAPGKGLEWVANIKQDGSEKYYLESVKGRFTISRDNAKNLLYLQMNSLRAEDTAVFYCARPGLLRFLEPGRRYYSGMNVWGQGTTVTVSS
VL: B7 VL with S30R, S85T, F87Y, L91F, N94Y, R96W
modifications: mouse IgG1 Fc
B9: H4H9112P: anti-APLNR antibody, HCVR/LCVR SEQ ID NO: 194/202, human IgG4 Fc (antibody, V domains shown)
VH: B3 VH
VL: DIQMTQSPSSLSAFVGDRVTITCRASQSISSYLNWYQQKPGKAPKLLIYTASTLQRGVPSRFRGSGSGTDFTLTISSLQPEDFATYYCHQTYSIPITFGQGTRLEIK
modifications: human IgG4 Fc
B10: H4H9104P: anti-APLNR antibody, HCVR/LCVR SEQ ID NO: 178/186, human IgG4 Fc (antibody, V domains shown)
VH: QVQLVESGGDLVKPGGSLRLSCAASGFTFSDYYMNWIRQAPGKGLEWVSYISSSGSTIHYADSVKGRFTISRDNAKNLVYLRMNSLRAEDTAVYFCAREREVHDYSDPYFFFYGMDVWGQGTTVTVSS
VL: DIQMTQSPSSVSASVGDRVTITCRASQDVSSWLAWYQHKPGKAPKLLIFAASSLQSGVPSRFSGSGSGTDFTLTISSLQSEDFATYYCQQANSFPLTFGGGTKVEIK
modifications: human IgG4 Fc

Biological target: T1, hAPLNR
Experiment: CRE-luciferase cyclic AMP assay, activation of hAPLNR (inhibition of Forskolin-induced cAMP) in HEK293/CRE-luc/hAPLNR cells
Type: cell-based
Design: expressed in transfected cells
Conditions: Table 6A; without Apelin; % of maximum Apelin activation
Description: The ability of anti-APLNR antibodies to activate hAPLNR-mediated cell signaling was measured using a cyclic AMP assay. The hAPLNR is a 7-transmembrane G-protein coupled receptor (GPCR).
(§1) The resulting cell line, HEK293/CRE-luc/hAPLNR, was maintained in DMEM containing 10% FBS, NEAA, pencillin/streptomycin, and 100 μg/mL Hygromycin B.
(§2) Testing of antibodies included a no antibody control.
(§3) The results of all assays were analyzed using nonlinear regression (4-parameter logistics) within Prism 5 software (GraphPad).

| % Activation at 100 nM mAb (at 5 uM Forskolin) | % Activation at 100 nM mAb (at 10 uM Forskolin) | Molecule |
| --- | --- | --- |
| No Activation |  | B1 |
|  | 12% | B2 |
| No Activation |  | B3 |
|  | No Activation | B4 |
|  | No Activation | B5 |
|  | No Activation | B6 |
| No Activation |  | B7 |
|  | No Activation | B8 |
| No Activation |  | B9 |
| No Activation |  | B10 |

Same assay, conditions: without Apelin; 100 nM highest antibody dose tested

| activation of hAPLNR, % of maximum Apelin activation at 100 nM [%] | Molecule |
| --- | --- |
| 12 | B2 |

Biological target: T1, hAPLNR
Experiment: CRE-luciferase cyclic AMP assay, inhibition of hAPLNR in the presence of 100 ρM Apelin in HEK293/CRE-luc/hAPLNR cells
Type: cell-based
Design: expressed in transfected cells
Conditions: Table 6C
Description: as §1, §2, §3

| % Inhibition at 100 nM antibody, in the presence of 100 ρM Apelin (at 5 μM Forskolin) | Molecule |
| --- | --- |
| 11% (IC) | B5 |

Same assay, conditions: Table 6D

| % Inhibition at 100 nM antibody, in the presence of 100 ρM Apelin (at 5 μM Forskolin) | Molecule |
| --- | --- |
| No Inhibition | B1 |
| No Inhibition | B3 |
| No Inhibition | B7 |
| No Inhibition | B9 |
| No Inhibition | B10 |

Same assay, conditions: unmodified anti-APLNR antibodies

| Molecule | inhibition (maximum blockade) of 100 ρM Apelin activation |
| --- | --- |
| B1 | did not demonstrate any measurable blockade |
| B3 | did not demonstrate any measurable blockade |
| B7 | did not demonstrate any measurable blockade |
| B9 | did not demonstrate any measurable blockade |
| B10 | did not demonstrate any measurable blockade |

Tested on: HEK293 parental cells
Experiment: FACS binding to HEK293 parental cells
Conditions: Table 3; 10 μg/mL antibody; anti-mouse IgG Alexa 647
Description: Binding ratios for human APLNR binding to purified anti-APLNR monoclonal antibodies were determined by a fluorescence-activated cell sorting (FACS) binding assay. […] The resulting stable cell lines, HEK293/CRE-luc/hAPLNR and HEK293/CRE-luc/MfAPLNR, were maintained in DMEM containing 10% FBS, NEAA, and penicillin/streptomycin with either 100 μg/mL Hygromycin B for hAPLNR cells or 500 μg/mL G418 for MfAPLNR cells.
For the FACS analysis, HEK293 parental, HEK293/CRE-luc/hAPLNR, and, HEK293/CRE-luc/mfAPLNR cells were dissociated using Enzyme Free Dissociation reagent (#S-004, Millipore, Billerica, Mass., USA) and 10^6 cells/well were plated onto 96-well v-bottom plates in PBS containing 1% FBS. […] Cells were then filtered and analyzed on Accuri Flow Cytometer (BD Biosciences, San Jose, Calif., USA). Unstained and secondary antibody alone controls were also tested for binding to all cell lines. […] Geometric mean (Geom. mean) of fluorescence for each antibody was then normalized to geometric mean of unstained cells to obtain relative binding of antibody (binding ratios) per each cell type: HEK293 (parental), HEK293/CRE-luc/hAPLNR and HEK293/CRE-luc/MfAPLNR.

| Molecule | Binding Ratio of Geom. Mean to Unstained Cells, HEK293 Parental |
| --- | --- |
| B2 | 4 |
| B4 | 3 |
| B5 | 2 |
| B6 | 3 |
| B8 | 4 |
